Here are results for four molecules from publication PMC5741177.

The target in one series is T1, br2(SS) (UniProt P03069 226-248+=GGC, internal_change).
T1 chain: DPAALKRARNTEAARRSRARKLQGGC
The series is described as follows: EMSA. Background: Mobility shift assays separate free from complexed probe on a gel.

In series [1] the target is T2, brHis2 (UniProt P03069, L230H;R234H).
T2 chain: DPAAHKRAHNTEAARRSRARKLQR
The series can be described thus: EMSA.

Series [2] deals with T2, brHis2. The series is described as follows: fluorescence anisotropy. Background: Fluorescence polarisation rises when a labelled molecule tumbles more slowly, as on binding a larger partner.
Series [3] concerns the target T2, brHis2. The series is described as follows: EMSA.
Another series deals with T3, br (UniProt P03069).
T3 chain: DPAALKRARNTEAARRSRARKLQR
The series can be described thus: EMSA.

For a further series, the target named is T4, brHis (UniProt P03069, R234H).
T4 chain: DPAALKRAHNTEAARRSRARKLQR
The series is described as follows: EMSA.

Like-named read-outs stand apart in the source and are kept apart here.

B1: AP-1 (dsDNA)
DNA 1: TGGAGATGACGTCATCTCGT
DNA 2: ACGAGATGACGTCATCTCCA
Take B1: the binding result in the series with br2(SS) and with brHis2 [1] was “binds” in each case.

B2: TMR-GTCAT (dsDNA)
DNA 1: CGCGTCATAATTGAGAGCGC
DNA 2: GCGCTCTCAATTATGACGCG
Consider B2, for which the Kd with brHis2 [2] was roughly 24 nM.

B3: MUT (dsDNA)
DNA 1: CGCGTGATAATTGAGAGCGC
DNA 2: GCGCTCTCAATTATCACGCG
For B3, the binding result with brHis2 [3] is listed as “no binding”.

B4: GTCAT (dsDNA)
DNA 1: CGCGTCATAATTGAGAGCGC
DNA 2: GCGCTCTCAATTATGACGCG
B4: the binding result with br and in the series with brHis was “no binding” each time.

As a reminder, the Kd is the constant that tells how readily two partners part at equilibrium. Low values mean a tighter complex, high ones a looser complex.
